{
  "source": "patent US20260055182A1",
  "key": {"[1]": {"target": "human C1q purified protein (human) (UniProt P02745)", "sequence (P02745 23-245, chain 1 of 3)": "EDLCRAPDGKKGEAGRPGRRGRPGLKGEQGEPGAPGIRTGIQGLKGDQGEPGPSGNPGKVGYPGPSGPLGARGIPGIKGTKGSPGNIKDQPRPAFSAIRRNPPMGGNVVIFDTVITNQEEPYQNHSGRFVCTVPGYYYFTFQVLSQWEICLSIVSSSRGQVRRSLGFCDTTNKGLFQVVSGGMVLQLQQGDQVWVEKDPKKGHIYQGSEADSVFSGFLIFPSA", "sequence (P02746 28-253, chain 2 of 3, further chain)": "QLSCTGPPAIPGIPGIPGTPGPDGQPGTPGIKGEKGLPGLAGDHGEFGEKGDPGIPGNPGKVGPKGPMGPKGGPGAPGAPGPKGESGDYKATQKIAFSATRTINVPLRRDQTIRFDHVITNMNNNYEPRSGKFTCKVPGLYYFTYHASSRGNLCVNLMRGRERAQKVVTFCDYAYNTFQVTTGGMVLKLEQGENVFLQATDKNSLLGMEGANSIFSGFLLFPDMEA", "sequence (P02747 29-245, chain 3 of 3, further chain)": "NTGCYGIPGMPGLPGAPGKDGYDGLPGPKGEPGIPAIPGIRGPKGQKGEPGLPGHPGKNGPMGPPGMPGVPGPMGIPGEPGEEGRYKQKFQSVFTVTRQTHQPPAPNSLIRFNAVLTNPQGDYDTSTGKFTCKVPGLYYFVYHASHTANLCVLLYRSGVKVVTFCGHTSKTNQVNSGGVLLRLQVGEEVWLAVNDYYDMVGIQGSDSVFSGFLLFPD", "experiment": "SPR (Biacore T200), C1q reversibly immobilised, antibody as analyte"}, "human FcyRI/CD64 (human)": {"target": "human FcyRI/CD64 (human) (UniProt P12314)", "sequence (P12314 16-288 limits assumed)": "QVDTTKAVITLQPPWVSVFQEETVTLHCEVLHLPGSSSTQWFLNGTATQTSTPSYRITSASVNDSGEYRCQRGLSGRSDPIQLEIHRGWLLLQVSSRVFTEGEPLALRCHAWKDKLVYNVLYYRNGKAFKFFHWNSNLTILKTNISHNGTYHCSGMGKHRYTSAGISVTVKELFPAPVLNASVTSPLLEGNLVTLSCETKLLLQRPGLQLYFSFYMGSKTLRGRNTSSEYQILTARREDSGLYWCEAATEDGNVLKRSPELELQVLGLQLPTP", "experiment": "SPR (Biacore 8K+), receptor reversibly immobilised, antibody as analyte"}, "[2]": {"target": "human FcyRIIA/CD32a (H167) (human) (UniProt P12318)", "sequence (P12318 36-218)": "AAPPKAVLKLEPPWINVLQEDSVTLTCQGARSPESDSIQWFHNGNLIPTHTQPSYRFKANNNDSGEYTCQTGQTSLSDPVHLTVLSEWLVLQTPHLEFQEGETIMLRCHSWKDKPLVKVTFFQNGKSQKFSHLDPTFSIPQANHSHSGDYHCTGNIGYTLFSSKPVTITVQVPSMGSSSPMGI", "experiment": "SPR (Biacore 8K+), receptor reversibly immobilised, antibody as analyte"}, "[3]": {"target": "human FcyRIIIA/CD16a (V176) (human) (UniProt P08637)", "sequence (P08637 17-208 F176V limits assumed)": "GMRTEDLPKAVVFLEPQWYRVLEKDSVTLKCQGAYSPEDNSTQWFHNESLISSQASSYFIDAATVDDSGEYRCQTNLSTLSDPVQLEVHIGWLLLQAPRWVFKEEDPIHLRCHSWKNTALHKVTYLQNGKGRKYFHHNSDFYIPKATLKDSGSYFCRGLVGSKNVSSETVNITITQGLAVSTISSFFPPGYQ", "experiment": "SPR (Biacore 8K+), receptor reversibly immobilised, antibody as analyte"}, "[4]": {"target": "human FcRn / FCGRT&B2M (human) (UniProt P55899)", "sequence (P55899 24-297 limits assumed, chain 1 of 2)": "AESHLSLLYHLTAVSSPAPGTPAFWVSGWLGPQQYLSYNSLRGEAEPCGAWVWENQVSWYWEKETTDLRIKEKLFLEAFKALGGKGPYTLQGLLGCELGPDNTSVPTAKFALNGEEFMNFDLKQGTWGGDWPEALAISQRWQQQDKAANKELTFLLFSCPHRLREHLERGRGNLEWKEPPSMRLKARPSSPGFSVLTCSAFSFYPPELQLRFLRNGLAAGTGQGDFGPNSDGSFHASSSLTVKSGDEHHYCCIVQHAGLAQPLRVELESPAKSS", "sequence (P61769 21-119 limits assumed, chain 2 of 2, further chain)": "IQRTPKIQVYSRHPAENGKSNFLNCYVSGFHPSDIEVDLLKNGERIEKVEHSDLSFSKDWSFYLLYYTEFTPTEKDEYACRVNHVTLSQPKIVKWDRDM", "experiment": "SPR (Biacore T200), pH 6.0, FcRn reversibly immobilised, antibody as analyte"}},
  "note": "pKd: −log10 of the molar value.",
  "data": [
    {"substance": "Mabthera (Rituximab) (antibody)", "values": [
      {"measurement": "pKd", "setting": "[1]", "value": 6.89},
      {"measurement": "pKd", "setting": "human FcyRI/CD64 (human)", "value": 10.39},
      {"measurement": "pKd", "setting": "[2]", "value": 6.49},
      {"measurement": "pKd", "setting": "[3]", "value": 7.24},
      {"measurement": "pKd", "setting": "[4]", "value": 6.42}
    ]}
  ]
}
